From publication PMC6669086
Where two headings read alike, the source gives them in different places. Blank lines part the entries; values can stand above or below the substance they belong to.

Key:
Atto532-tUI [1] = target: Atto532-tUI (UniProt Q9UMX0); test: other fluorescence titration
ubiquitin (Homo sapiens) [2] = target: ubiquitin (Homo sapiens) (UniProt P0CG48); settings: cited from earlier work
ubiquitin (Homo sapiens) [3] = target: ubiquitin (Homo sapiens) (UniProt P0CG48); settings: cited from earlier work; remark: listed apart in the source
Atto532-tUI [4] = target: Atto532-tUI (UniProt Q9UMX0); test: stopped-flow fluorescence kinetics
tUI = tUI (UniProt Q9UMX0); test: other fluorescence titration

Chain of Nedd8 (Q15843 1-76): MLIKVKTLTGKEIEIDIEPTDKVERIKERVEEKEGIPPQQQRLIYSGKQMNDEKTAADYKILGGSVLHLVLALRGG
Chain of Rabex5 RUZ RUZ (Q9UJ41 13-47): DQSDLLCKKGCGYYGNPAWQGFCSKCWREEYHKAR
Chain of IsoT BUZ BUZ (P45974 173-289): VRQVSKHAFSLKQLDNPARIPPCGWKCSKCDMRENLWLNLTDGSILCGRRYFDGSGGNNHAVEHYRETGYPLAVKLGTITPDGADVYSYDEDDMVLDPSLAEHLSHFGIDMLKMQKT

fold higher affinity for Ub than Nedd8 (Atto532-tUI [1]): 120 fold
Substance: Nedd8 (from UniProt Q15843 1-76) (natural protein)

Substance: IsoT BUZ BUZ (from UniProt P45974)
Kd (ubiquitin (Homo sapiens) [2]): 3000 nM

Substance: Rabex5 RUZ RUZ (from UniProt Q9UJ41)
Kd (ubiquitin (Homo sapiens) [3]): 12000 nM

Kd (Atto532-tUI [4]): 0.0564 nM
Kd (Atto532-tUI [1]): 0.066 nM
Ki (tUI): 0.194 nM
Substance: ubiquitin (free Ub) (from UniProt P0CG48 1-76) (natural protein)
